Where two headings read alike, the source gives them in different places. Blank lines part the entries; values can stand above or below the molecule they belong to. Starred links: 1 amine or outer side, 2 acyl side, 3 side chain; linkers in the order of their positions; H or OH if unused. Positions of bridges follow the written chain, without caps; N, C: chain ends. Non-standard residues stand in square brackets, D forms with d. No end group written: not given here. X1 = 3(R)‑3‑amino‑2‑oxo‑1‑piperidine‑acetic acid, O=C1[C@H](N[*:1])CCCN1CC(=O)[*:2]; NMeL = CN[C@@H](CC(C)C)C(=O)O; Pen = CC(C)(S)[C@H](N)C(=O)O; NMeA = CN[C@@H](C)C(=O)O; βAla = NCCC(=O)O
Columns and labels:
[1] = molecular target: T1, soluble human FcRn (shFcRn) (Homo sapiens, UniProt P55899); assay type: binding; conditions: IgG competition ELISA, 3 nM human IgG, buffer pH 6
T1 construct: made in house; host or cells: Chinese hamster ovary (CHO) cells, glutamine synthetase expression system
Description: A solution of soluble human FcRn (shFcRn) in Tris buffer was dialyzed twice, each time for 3 hours in 2 liters of PBS, pH 8.0. The quantity of recovered shFcRn was determined by measuring the absorbance at 280 nm. […] Biotinylation of shFcRn was accomplished by treating the dialyzed shFcRn with a 2-fold-molar excess of Sulfo-NHS-LC-Biotin (Invitrogen, Carlsbad, Calif.) for 2 hours at 4° C. Afterwards, the shFcRn-Sulfo-NHS-LC-Biotin reaction mixture was dialyzed twice in 2 L of cold PBS, followed by another absorbance reading to determine the concentration of the remaining protein. The biotinylated shFcRn was stored at 4° C. with 0.1% sodium azide until needed.
The wells were coated with 100 μl/well of 1 μg/ml biotinylated-shFcRn in Buffer A. The plate was sealed and incubated at 37° C. for 2 hours. Afterwards, the plate was washed with 200 μl/well of Buffer B (Buffer B: 100 mM MES pH 6, 150 mM NaCl, 0.5% BSA IgG-free (Jackson ImmunoResearch, West Grove, Pa.), 0.05% Tween-20). Then, 50 μl/well of 6 nM human IgG (Calbiochem, San Diego, Calif.) in Buffer B as well as 50 μl/well of the various peptide competitors (at various concentration) were added, so that the final concentration of IgG in the well was 3 nM. […] Once color developed, 100 μl/well of TMB stop solution (KPL, Gaithersburg, Md.) was added and the absorbance was measured at 450 nm.

soluble human FcRn = molecular target: T2, soluble human FcRn (Homo sapiens, UniProt P55899); assay: Equilibrium binding constants (KD) by surface plasmon resonance (Biacore); conditions: pH 6
T2 construct: made in house; host or cells: Chinese hamster ovary (CHO) cells, glutamine synthetase expression system
Description: (§1) The following steps were performed to cross-link soluble human or cynomolgus FcRn to the dextran surface of a CM5 sensor chip (Biacore AB, Uppsala, Sweden) by an amine coupling reaction involving 1-ethyl-(3-dimethylaminopropyl)-carbodiimide hydrochloride (EDC) (Biacore AB, Uppsala, Sweden) and N-hydroxysuccinimide (NHS) (Biacore AB, Uppsala, Sweden) as recommended by Biacore (BIAapplications Handbook, version AB, section 4.2, Biacore AB, Uppsala, Sweden). The FcRn protein was diluted in 50 mM sodium acetate, pH 4.5 (Biacore AB, Uppsala, Sweden) to a concentration of 10 to 30 μg/ml and used to coat one flow cell on the sensor chip. Residual sites on the FcRn flow cell were blocked with 1 M ethanolamine hydrochloride pH 8.5 (Biacore AB, Uppsala, Sweden). A control flow cell was blocked with ethanolamine for reference subtraction. For analysis of the monomeric peptides, FcRn was coated to a final density of 4000-5000 response units (RU). For analysis of the peptide dimers, FcRn was coated to a density of 2000-2500 RU. […]
(§2) Ten 2-fold dilutions of the peptide were injected over the FcRn-CM5 chip at a rate of 20 μl/min for 2 min. […] Sensorgrams were generated and analyzed using BiaEval software version 3.1 (Biacore AB, Uppsala, Sweden). […]
Sensorgrams were generated and analyzed using BiaEval software version 3.1 (Biacore AB, Uppsala, Sweden). […]

[2] = molecular target: T3, soluble human FcRn (shFcRn) (human, UniProt P55899 24-297; P61769 21-119, biotinylated with Sulfo-NHS-LC-Biotin in the ELISA; amine-coupled to a CM5 chip in SPR); assay: SPR, pH 6; small-letter c (D-cysteine) at first Cys position, no Pen
T3 construct: also called biotinylated shFcRn
Description: as §1, with “µg/ml” for “μg/ml”
as §2, with “A. Representative Procedure for the Determination of Binding Constant of Monomeric Peptides Ten” for “Ten”, “µl/min” for “μl/min”

[3] = molecular target: T3, soluble human FcRn (shFcRn); assay: SPR, pH 6; Tyr replaced by NMeTyr (N-methyl scan)
Description: as §1, with “µg/ml” for “μg/ml”
as §2, with “A. Representative Procedure for the Determination of Binding Constant of Monomeric Peptides Ten” for “Ten”, “µl/min” for “μl/min”

[4] = molecular target: T3, soluble human FcRn (shFcRn); assay: competition ELISA vs human IgG
Description: (§3) The wells were coated with 100 μl/well of 1 μg/ml biotinylated-shFcRn in Buffer A. The plate was sealed and incubated at 37° C. for 2 hours. Afterwards, the plate was washed with 200 μl/well of Buffer B (Buffer B: 100 mM MES pH 6, 150 mM NaCl, 0.5% BSA IgG-free (Jackson ImmunoResearch, West Grove, Pa.), 0.05% Tween-20). […] To allow for mixing, the plate was rocked for 2 minutes, sealed and incubated at 37° C. for 2 hours. […] The plate was covered, incubated for 30 minutes at room temperature and washed 4 times with 200 μl/well of ice-cold buffer B. SureBlue TMB substrate solution (100 μl/well, KPL, Gaithersburg, Md.) was added and the plate was allowed to incubate at room temperature until color developed, which took 5 to 10 minutes. Once color developed, 100 μl/well of TMB stop solution (KPL, Gaithersburg, Md.) was added and the absorbance was measured at 450 nm.

[5] = molecular target: T3, soluble human FcRn (shFcRn); assay: SPR, pH 6; small-letter c (D-cysteine) at both Cys positions
Description: as §1, with “µg/ml” for “μg/ml”
as §2, with “A. Representative Procedure for the Determination of Binding Constant of Monomeric Peptides Ten” for “Ten”, “µl/min” for “μl/min”

[6] = molecular target: T3, soluble human FcRn (shFcRn); assay: SPR, pH 7.4
Description: (§4) The following steps were performed to cross-link soluble human or cynomolgus FcRn to the dextran surface of a CM5 sensor chip (Biacore AB, Uppsala, Sweden) by an amine coupling reaction involving 1-ethyl-(3-dimethylaminopropyl)-carbodiimide hydrochloride (EDC) (Biacore AB, Uppsala, Sweden) and N-hydroxysuccinimide (NHS) (Biacore AB, Uppsala, Sweden) as recommended by Biacore (BIAapplications Handbook, version AB, section 4.2, Biacore AB, Uppsala, Sweden). The FcRn protein was diluted in 50 mM sodium acetate, pH 4.5 (Biacore AB, Uppsala, Sweden) to a concentration of 10 to 30 µg/ml and used to coat one flow cell on the sensor chip. Residual sites on the FcRn flow cell were blocked with 1 M ethanolamine hydrochloride pH 8.5 (Biacore AB, Uppsala, Sweden). A control flow cell was blocked with ethanolamine for reference subtraction. For analysis of the monomeric peptides, FcRn was coated to a final density of 4000-5000 response units (RU). For analysis of the peptide dimers, FcRn was coated to a density of 2000-2500 RU. All SPR measurements were performed using a BIACORE 3000 Instrument (Biacore AB Uppsala, Sweden). For measurements done at either pH 6 or pH 7.4, experiments were performed in 50 mM phosphate, 100 mM sodium chloride, 0.01% surfactant P20 (Biacore AB, Uppsala, Sweden).
(§5) A. Representative Procedure for the Determination of Binding Constant of Monomeric Peptides Ten 2-fold dilutions of the peptide were injected over the FcRn-CM5 chip at a rate of 20 µl/min for 2 min. The peptide was dissociated from the chip for 2.5 minutes with buffer. Any remaining peptide was removed from the chip with a 30 second injection of HBS-P buffer (Biacore AB, Uppsala, Sweden) at a rate of 30 µl/min. Sensorgrams were generated and analyzed using BiaEval software version 3.1 (Biacore AB, Uppsala, Sweden). The equilibrium RU observed for each injection was plotted against concentration. The equilibrium K_D values were derived by analysis of the plots using the steady state affinity model included in the BiaEval software.

[7] = molecular target: T3, soluble human FcRn (shFcRn); assay: competition ELISA vs human IgG; remark: listed apart in the source
Description: as §3

[8] = molecular target: T3, soluble human FcRn (shFcRn); assay: SPR, pH 6
Description: as §4, §5

[9] = molecular target: T3, soluble human FcRn (shFcRn); assay: SPR, pH 7.4; remark: listed apart in the source
Description: as §1, with “µg/ml” for “μg/ml”
as §2, with “A. Representative Procedure for the Determination of Binding Constant of Monomeric Peptides Ten” for “Ten”, “µl/min” for “μl/min”

[10] = molecular target: T3, soluble human FcRn (shFcRn); assay: competition ELISA vs human IgG; remark: listed apart in the source
Description: as §3

[11] = molecular target: T3, soluble human FcRn (shFcRn); assay: SPR, pH 6; remark: listed apart in the source
Description: as §4, §5

[12] = molecular target: T3, soluble human FcRn (shFcRn); assay: SPR, pH 7.4
[13] = molecular target: T3, soluble human FcRn (shFcRn); assay: SPR, pH 6; remark: listed apart in the source
[14] = molecular target: T3, soluble human FcRn (shFcRn); assay: competition ELISA vs human IgG; remark: listed apart in the source

Molecule: QRFCGHF[βAla]LYPCNGP (cysteine pairing not given here) [Peptide No. 25]
- IC50 [1]: > 125 µM
- Kd (soluble human FcRn): > 250 µM

B1: Peptide No. 29 (peptide)
peptide: QRFXTGHFGGLYPCNGP
modifications: D-Cys4; disulfide; C-terminal amide
- Kd [2]: 150 µM

B2: Peptide No. 114 (peptide)
peptide: QRFXTGHFGGLXPCNGP
modifications: Pen4; NMeTyr12; disulfide; C-terminal amide
- Kd [3]: 92 µM

B3: Peptide No. 31 (peptide)
peptide: QRFXTGHFGGLYPXNGP
modifications: D-Cys4; D-Cys14; disulfide; C-terminal amide
- IC50 [4]: > 500 µM
- Kd [5]: 200 µM

B5: Peptide No. 177 (peptide)
peptide: QRFVTGHFGXWYPANGP
modifications: D-Pro10; unbridged; C-terminal amide
- Kd [8]: 5.8 µM
- Kd [6]: 96 µM
- IC50 [4]: 52 µM

B7: Peptide No. 24 (peptide)
peptide: QRFCTGHFXXLYPCNGP
modifications: D-Ala9; D-Ala10; disulfide; C-terminal amide
- Kd [8]: 22 µM
- Kd [6]: > 250 µM
- IC50 [4]: 69 µM

B9: Peptide No. 235 (peptide)
peptide: RFXTGHFGXXYPC
modifications: Pen3; Sar9; NMeLeu10; disulfide; C-terminal amide
- Kd [8]: 0.031 µM
- Kd [6]: 0.17 µM
- Kd [9]: 0.17 µM
- IC50 [10]: 0.49 µM
- Kd [11]: 0.031 µM
- IC50 [4]: 0.49 µM

The remaining lines, values ahead:

- Kd [6]: 9 µM
- IC50 [4]: 37 µM
- IC50 [7]: 37 µM
B4: Peptide No. 236 (peptide)
peptide: RFVTGHFGXXYPA
modifications: Sar9; NMeLeu10; unbridged; C-terminal amide

- Kd [8]: 0.046 µM
- Kd [6]: 0.23 µM
- Kd [9]: 0.23 µM
- IC50 [10]: 0.42 µM
- Kd [11]: 0.046 µM
- IC50 [4]: 0.42 µM
B6: Peptide No. 187 (peptide)
peptide: QRFXTGHFGXXYPCNGP
modifications: Pen4; Sar10; NMeLeu11; disulfide; C-terminal amide

- IC50 [10]: 6.5 µM
- Kd [11]: 0.73 µM
B8: Peptide No. 188 (peptide)
peptide: QRFXTGHFXXXYPCNGP
modifications: Pen4; D-Ala9; Sar10; NMeLeu11; disulfide; C-terminal amide

- Kd [8]: 0.5 µM
- Kd [12]: 0.5 µM
- IC50 [4]: 5.5 µM
B10: Peptide No. 256 (peptide)
peptide: RFXTGRFGXXYPC
modifications: Pen3; Sar9; NMeLeu10; disulfide; C-terminal amide

- Kd [8]: 3.3 µM
- Kd [12]: 4.2 µM
B11: Peptide No. 265 (peptide)
peptide: RFXTGFFGXXYPC
modifications: Pen3; Sar9; NMeLeu10; disulfide; C-terminal amide

- Kd [8]: 1.3 µM
- Kd [12]: 1.1 µM
- IC50 [4]: 40 µM
B12: Peptide No. 255 (peptide)
peptide: RFXTGKFGXXYPC
modifications: Pen3; Sar9; NMeLeu10; disulfide; C-terminal amide

- Kd [13]: 0.145 µM
- IC50 [14]: 1.1 µM
B13: Peptide No. 228 (peptide)
peptide: RF[Pen][NMeA]GHF[X1][NMeL]YPC-NH2
modifications: disulfide 3-12 (inferred)
